Numbered stars: 1 amine (or outer) side, 2 acyl side, 3 side chain; on linkers, the order of the positions; unused ones are H or OH. Square brackets hold non-standard residues; d marks the D form. * marks the point of attachment. AAsp = aza-Asp, O=C(N(CC(=O)[*:3])N[*:1])[*:2]; Cbz = O=C(OCc1ccccc1)*; NHBn = c1ccc(CN*)cc1

Assay in all cases: cell-based or functional assay
One assay deals with T1, caspase-3 (UniProt P42574).
T1 sequence (looked up): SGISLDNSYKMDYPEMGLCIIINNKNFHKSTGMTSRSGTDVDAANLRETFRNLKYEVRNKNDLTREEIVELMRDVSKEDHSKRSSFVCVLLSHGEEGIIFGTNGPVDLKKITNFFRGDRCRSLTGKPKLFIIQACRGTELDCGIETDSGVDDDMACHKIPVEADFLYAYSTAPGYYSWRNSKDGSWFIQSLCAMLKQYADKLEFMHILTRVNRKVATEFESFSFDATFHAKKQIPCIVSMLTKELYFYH

A further assay addresses T2, caspase-6 (UniProt P55212).
T2 sequence (looked up): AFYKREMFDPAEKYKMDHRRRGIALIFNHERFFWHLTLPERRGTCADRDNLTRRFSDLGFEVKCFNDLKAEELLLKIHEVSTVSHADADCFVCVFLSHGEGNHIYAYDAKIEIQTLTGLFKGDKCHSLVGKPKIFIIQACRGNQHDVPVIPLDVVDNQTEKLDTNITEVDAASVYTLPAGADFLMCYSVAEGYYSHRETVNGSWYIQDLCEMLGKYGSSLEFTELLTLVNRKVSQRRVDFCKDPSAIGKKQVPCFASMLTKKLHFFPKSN

Assay [1] deals with autolytically stable caspase-1 variant (D381 E) (UniProt P29466).
Sequence of autolytically stable caspase-1 variant (D381 E) (P29466 other isoform, or with tags, fused parts or gaps mutant limits assumed): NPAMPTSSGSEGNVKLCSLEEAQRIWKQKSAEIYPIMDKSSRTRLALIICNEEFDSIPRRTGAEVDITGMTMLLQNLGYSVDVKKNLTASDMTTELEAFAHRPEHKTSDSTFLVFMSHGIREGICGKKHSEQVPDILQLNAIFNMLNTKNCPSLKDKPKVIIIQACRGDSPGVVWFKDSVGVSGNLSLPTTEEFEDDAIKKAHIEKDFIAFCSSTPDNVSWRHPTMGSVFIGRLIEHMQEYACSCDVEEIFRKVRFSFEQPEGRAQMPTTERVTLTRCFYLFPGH

In the assay with caspase-3, Cbz-LET[AAsp]-{(S,S)‑EP‑CONHCH2CH2Ph} [Cbz-Leu-Glu-Thr-AAsp-(S,S)-EP-CONHCH2CH2Ph] yielded a k2 of 2550 M⁻¹ s⁻¹.

Turning to Cbz-LET[AAsp]-{(2S,3S)‑EP‑CON(CH3)CH2Ph} [Cbz-Leu-Glu-Thr-AAsp-(2S,3S)-EP-CON(CH3)CH2Ph], the k2 amounted to 2640 M⁻¹ s⁻¹ with caspase-3 and 9680 M⁻¹ s⁻¹ with caspase-6.

With Cbz-LET[AAsp]-{(2S,3S)‑EP‑CON(CH2Ph)2} [Cbz-Leu-Glu-Thr-AAsp-(2S,3S)-EP-CON(CH2Ph)2], the k2 came to 2750 M⁻¹ s⁻¹ in the assay with caspase-3 and 13800 M⁻¹ s⁻¹ with caspase-6. Molecule Cbz-LET[AAsp]-{(S,S)‑EP‑CO-Ala-NHBn} [Cbz-Leu-Glu-Thr-AAsp-(S,S)-EP-CO-Ala-NHCH2Ph] had a k2 in the assay with caspase-3 of 1280 M⁻¹ s⁻¹. For the molecule Cbz-LET[AAsp]-{(2S,3S)‑EP‑COOEt} [Cbz-Leu-Glu-Thr-AAsp-(2S, 3S)-EP-COOEt], the k2 was determined as 25700 M⁻¹ s⁻¹ in assay [1] and 3210 M⁻¹ s⁻¹ with caspase-3. On the same counts, the results for Cbz-LET[AAsp]-{(S,S)‑EP‑COOCH2Ph} [Cbz-Leu-Glu-Thr-AAsp-(S,S)-EP-COOCH2Ph] are 43500 M⁻¹ s⁻¹ and 3520 M⁻¹ s⁻¹. On the same counts, the results for Cbz-LET[AAsp]-{(2R,3R)‑EP‑COOEt} [Cbz-Leu-Glu-Thr-AAsp-(2R, 3R)-EP-COOEt] are 19600 M⁻¹ s⁻¹ and 3250 M⁻¹ s⁻¹.

Source of the values: patent US20040048327A1.
